Experimental data as given in patent publication US20220411483A1 (Chugai, published 2022).
Substitutions are numbered along the chain they refer to. Blank lines part the entries; values can stand above or below the binder they belong to.

Columns and labels:
[1] = target: T1, FcγRIIb extracellular domain with C-terminal His tag (human, UniProt P31994 43-217); assay: SPR; KD of IL6R-B3/IL6R-L divided by KD of variant
T1 construct: extracellular domain; also called FcgRIIb; not shown: His tag at the C terminus
T1 sequence (looked up): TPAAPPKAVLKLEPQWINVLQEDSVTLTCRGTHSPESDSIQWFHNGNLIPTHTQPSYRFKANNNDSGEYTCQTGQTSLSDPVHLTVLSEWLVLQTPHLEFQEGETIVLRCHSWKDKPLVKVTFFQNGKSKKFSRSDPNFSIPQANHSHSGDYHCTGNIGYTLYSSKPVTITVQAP

[2] = target: T2, FcγRIIa R type extracellular domain with C-terminal His tag (human, UniProt P12318 34-217); assay: SPR; KD of IL6R-B3/IL6R-L divided by KD of variant
T2 construct: extracellular domain; also called FcgRIIaR; not shown: His tag at the C terminus
T2 sequence (looked up): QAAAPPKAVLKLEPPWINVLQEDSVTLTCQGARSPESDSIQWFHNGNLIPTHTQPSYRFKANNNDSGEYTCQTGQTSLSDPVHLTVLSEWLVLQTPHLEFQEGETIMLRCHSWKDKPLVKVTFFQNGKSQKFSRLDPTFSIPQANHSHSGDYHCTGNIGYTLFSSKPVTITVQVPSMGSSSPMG

[3] = target: T1, FcγRIIb extracellular domain with …; assay: SPR, antibody captured, FcgR analyte
[4] = target: T3, FcγRIa extracellular domain with C-terminal His tag (human, UniProt P12314 16-292); assay: SPR, antibody captured, FcgR analyte
T3 construct: also called FcgRIa; CD64; not shown: His tag at the C terminus
T3 sequence (P12314 16-292): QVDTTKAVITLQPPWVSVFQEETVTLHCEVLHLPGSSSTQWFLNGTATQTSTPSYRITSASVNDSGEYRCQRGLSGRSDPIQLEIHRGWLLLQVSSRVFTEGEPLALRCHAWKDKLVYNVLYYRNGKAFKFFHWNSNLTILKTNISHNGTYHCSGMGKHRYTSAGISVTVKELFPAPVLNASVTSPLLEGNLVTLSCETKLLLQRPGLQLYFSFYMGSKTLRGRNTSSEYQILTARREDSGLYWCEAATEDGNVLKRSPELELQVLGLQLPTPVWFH

[5] = target: T2, FcγRIIa R type extracellular domain …; assay: SPR, antibody captured, FcgR analyte
[6] = target: T4, FcγRIIIa V type extracellular domain, His tag (human, UniProt P08637 17-208); assay: SPR, KD ratio
T4 construct: extracellular domain; also called FcgRIIIaV
T4 sequence (P08637 17-208 F176V): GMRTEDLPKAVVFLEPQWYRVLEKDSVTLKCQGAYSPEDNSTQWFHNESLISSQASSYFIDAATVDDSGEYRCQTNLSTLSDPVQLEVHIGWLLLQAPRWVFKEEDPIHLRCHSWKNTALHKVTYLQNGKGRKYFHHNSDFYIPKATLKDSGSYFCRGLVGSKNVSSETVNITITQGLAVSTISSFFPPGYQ

[7] = target: T5, FcγRIIa H type extracellular domain, His tag (human, UniProt P12318 34-217); assay: SPR, KD ratio
T5 construct: extracellular domain; also called FcgRIIaH
T5 sequence (looked up): T2 sequence (looked up) with R134H

[8] = target: T6, FcγRIIb extracellular domain, His tag (human, UniProt P31994 43-217); assay: SPR, KD ratio
T6 construct: extracellular domain; also called FcgRIIb
T6 sequence (looked up): T1 sequence (looked up)

[9] = target: T7, FcγRIIa R type extracellular domain, His tag (human, UniProt P12318 34-217); assay: SPR, KD ratio
T7 construct: extracellular domain; also called FcgRIIaR
T7 sequence (looked up): T2 sequence (looked up)

[10] = target: T8, FcγRIa extracellular domain, His tag (human, UniProt P12314 16-292); assay: SPR, KD ratio
T8 construct: whole entry named; also called FcgRIa
T8 sequence (P12314 16-292): as the sequence (P12314 16-292) above

[11] = target: T6, FcγRIIb extracellular domain, His tag; assay: SPR, bound amount per captured antibody
[12] = target: T7, FcγRIIa R type extracellular domain, …; assay: SPR, bound amount per captured antibody

- Relative FcgRIIb-binding Activity [1]: 16.8
- Relative FcgRIIaR-binding Activity [2]: 0.3
- Kd [3]: 180 nM
- Kd [4]: 5.6 nM
- Kd [5]: 4200 nM
B1: IL6R-BP560/IL6R-L (antibody, human IgG1, kappa, name in EU numbering)
heavy: QVQLQESGPGLVKPSETLSLTCAVSGHSISHDHAWSWVRQPPGEGLEWIGFISYSGITNYNPSLQGRVTISRDNSKNTLYLQMNSLRAEDTAVYYCARSLARTTAMDYWGEGTLVTVSSASTKGPSVFPLAPSSKSTSGGTAALGCLVKDYFPEPVTVSWNSGALTSGVHTFPAVLQSSGLYSLSSVVTVPSSSLGTQTYICNVNHKPSNTKVDKKVEPKSCDKTHTCPPCPAPELLGGDSVFLFPPKPKDTLMISRTPEVTCVVVDVGEEDGEVKFNWYVDGVEVHNAKTKPREEQDNSTYRVVSVLTVLHQDWLNGKEYKCKVSNKALPRPIEKTISKAKGQPREPQVYTLPPSRDELTKNQVSLTCLVKGFYPSDIAVEWESNGQPENNYKTTPPVLDSDGSFFLYSKLTVDKSRWQQGNVFSCSVMHEALHNHYTQESLSLSP
light: not shown
notes: human IgG1

- Relative FcgRIIIaV-binding Activity [6]: 0.008 fold of IL6R-G1d/IL6R-L
- Relative FcgRIIaH-binding Activity [7]: 0.007 fold of IL6R-G1d/IL6R-L
- Relative FcgRIIb-binding Activity [8]: 0.977 fold of IL6R-G1d/IL6R-L
- Relative FcgRIIaR-binding Activity [9]: 0.021 fold of IL6R-G1d/IL6R-L
- Relative FcgRIa-binding Activity [10]: 0.0384 fold of IL6R-G1d/IL6R-L
- Relative FcgRIIb-binding Activity [11]: 82 % of IL6R-G1d/IL6R-L
- Relative FcgRIIaR-binding Activity [12]: 13.5 % of IL6R-G1d/IL6R-L
B2: IL6R-P605/IL6R-L (antibody, human IgG1, kappa)
heavy: B1 heavy with G269S, E270H, G273P, S300A, R332A, E441K
light: not shown

- Relative FcgRIIb-binding Activity [1]: 224
- Relative FcgRIIaR-binding Activity [2]: 1.2
- Kd [3]: 14 nM
- Kd [4]: 0.21 nM
- Kd [5]: 890 nM
B3: IL6R-BP567/IL6R-L (antibody, human IgG1, kappa, name in EU numbering)
heavy: B1 heavy with E235D, V266I, G269A, R332A
light: not shown
notes: human IgG1

- Relative FcgRIIb-binding Activity [1]: 140
- Relative FcgRIIaR-binding Activity [2]: 1.9
- Kd [3]: 22 nM
- Kd [4]: 31 nM
- Kd [5]: 580 nM
B4: IL6R-BP564/IL6R-L (antibody, human IgG1, kappa, name in EU numbering)
heavy: B1 heavy with G239D, G269S, E274D
light: not shown
notes: human IgG1

- Relative FcgRIIIaV-binding Activity [6]: 0.007 fold of IL6R-G1d/IL6R-L
- Relative FcgRIIaH-binding Activity [7]: 0.009 fold of IL6R-G1d/IL6R-L
- Relative FcgRIIb-binding Activity [8]: 1.46 fold of IL6R-G1d/IL6R-L
- Relative FcgRIIaR-binding Activity [9]: 0.024 fold of IL6R-G1d/IL6R-L
- Relative FcgRIa-binding Activity [10]: 0.0183 fold of IL6R-G1d/IL6R-L
- Relative FcgRIIb-binding Activity [11]: 116 % of IL6R-G1d/IL6R-L
- Relative FcgRIIaR-binding Activity [12]: 14.5 % of IL6R-G1d/IL6R-L
B5: IL6R-P653/IL6R-L (antibody, human IgG1, kappa)
heavy: B1 heavy with F243M, G269S, E270P, G273P, D298E, R332A, E441K
light: not shown

- Relative FcgRIIIaV-binding Activity [6]: 0.005 fold of IL6R-G1d/IL6R-L
- Relative FcgRIIaH-binding Activity [7]: 0.01 fold of IL6R-G1d/IL6R-L
- Relative FcgRIIb-binding Activity [8]: 3.81 fold of IL6R-G1d/IL6R-L
- Relative FcgRIIaR-binding Activity [9]: 0.038 fold of IL6R-G1d/IL6R-L
- Relative FcgRIa-binding Activity [10]: 0.0004 fold of IL6R-G1d/IL6R-L
- Relative FcgRIIb-binding Activity [11]: 149 % of IL6R-G1d/IL6R-L
- Relative FcgRIIaR-binding Activity [12]: 20.8 % of IL6R-G1d/IL6R-L
B6: IL6R-P658/IL6R-L (antibody, human IgG1, kappa)
heavy: B1 heavy with L237F, F243M, G269S, E270H, G273P, D298E, R332A, E441K
light: not shown

- Relative FcgRIIIaV-binding Activity [6]: 0.005 fold of IL6R-G1d/IL6R-L
- Relative FcgRIIaH-binding Activity [7]: 0.009 fold of IL6R-G1d/IL6R-L
- Relative FcgRIIb-binding Activity [8]: 1.64 fold of IL6R-G1d/IL6R-L
- Relative FcgRIIaR-binding Activity [9]: 0.026 fold of IL6R-G1d/IL6R-L
- Relative FcgRIa-binding Activity [10]: 0.0194 fold of IL6R-G1d/IL6R-L
- Relative FcgRIIb-binding Activity [11]: 115 % of IL6R-G1d/IL6R-L
- Relative FcgRIIaR-binding Activity [12]: 15.4 % of IL6R-G1d/IL6R-L
B7: IL6R-P657/IL6R-L (antibody, human IgG1, kappa)
heavy: B1 heavy with F243M, G269S, E270H, G273P, D298E, R332Y, E441K
light: not shown

- Relative FcgRIIIaV-binding Activity [6]: 0.007 fold of IL6R-G1d/IL6R-L
- Relative FcgRIIaH-binding Activity [7]: 0.017 fold of IL6R-G1d/IL6R-L
- Relative FcgRIIb-binding Activity [8]: 1.89 fold of IL6R-G1d/IL6R-L
- Relative FcgRIIaR-binding Activity [9]: 0.03 fold of IL6R-G1d/IL6R-L
- Relative FcgRIa-binding Activity [10]: 0.0183 fold of IL6R-G1d/IL6R-L
- Relative FcgRIIb-binding Activity [11]: 127 % of IL6R-G1d/IL6R-L
- Relative FcgRIIaR-binding Activity [12]: 17.1 % of IL6R-G1d/IL6R-L
B8: IL6R-P655/IL6R-L (antibody, human IgG1, kappa)
heavy: B1 heavy with F243M, G269S, E270H, G273P, D298E, S326H, R332A, E441K
light: not shown

- Relative FcgRIIb-binding Activity [1]: 196
- Relative FcgRIIaR-binding Activity [2]: 1.9
- Kd [3]: 16 nM
- Kd [4]: 18 nM
- Kd [5]: 570 nM
B9: IL6R-BP549/IL6R-L (antibody, human IgG1, kappa, name in EU numbering)
heavy: B1 heavy with G239D, D298Y
light: not shown
notes: human IgG1

- Relative FcgRIIb-binding Activity [1]: 131
- Relative FcgRIIaR-binding Activity [2]: 1.6
- Kd [3]: 24 nM
- Kd [4]: 25 nM
- Kd [5]: 680 nM
B10: IL6R-BP562/IL6R-L (antibody, human IgG1, kappa, name in EU numbering)
heavy: B1 heavy with G239D, G269S, E270D, E274D
light: not shown
notes: human IgG1
